Values joined by “and” are separate entries in the source; they are usually repeats but may differ in a detail not shown here. Identical values can stand only once.

The assay has as its target heavy chains (Iα and Iβ) of inner arm dynein I1 (Chlamydomonas reinhardtii (endogenous in axonemes)) (UniProt Q9SMH3). Description: quantitative densitometry of Coomassie blue-stained gels.
Substance “Chlamydomonas 8,000-M r LC (natural protein)” returned a most likely relative stoichiometry (relative to the HCs) (relative to the HCs) of 4 to 5.5 and a relative stoichiometry (relative to the HCs) (relative to the HCs) of 4 to 5.5.

Regarding “IC97 of inner arm dynein I1 (natural protein)”, the most likely relative stoichiometry (relative to the HCs) (relative to the HCs) was 0.5 to 1; the relative stoichiometry (relative to the HCs) (relative to the HCs) is 0.95 and 0.67 and 0.56.

Take “IC140 of inner arm dynein I1 (natural protein)”: the most likely relative stoichiometry (relative to the HCs) (relative to the HCs) is 0.5 to 1; the relative stoichiometry (relative to the HCs) (relative to the HCs) was 0.71 and 0.53 and 0.63.

Source of the values: PMC2132707.
